B1: full length S. pombe Pik1, wild type [S. pombe] / purified Cdc4 protein [S. pombe] (parent)
chain 1: MPSSNSGNELLLRFFESAHFTSQLCVAYLSRYPNNIGIHHFLCEKLATFPYEEIEFFIPQLIHLVLNKDSESVALEEFIISQCEQNTQCALITFWYLQAHMVDLGLQPHSSCFKICKRLYNRIQILVFMSSSSLIQSQQKISENVTPALILSGIMLGGVCVPELLKKAGPIAIAQGRKAPRQDPDESDVDVLRRLSTEPRYSLDVLRSSLNNSIVEQHSEVSLRLKAPELTRTHSYQSSATLSIDEQRRVLRSNYFQQEIQFLFALQDISIRLIIVPRQARLSSLRAELALLNNNLPADVNIPLLRSYHKEVSHKIVRIDPKEATILNSAERVPYLIMVEVLSGELSFEPQSKKNKAKVQKIVSHKNQRKRWFDLTDVDPYTNLQDSTDNDISESESEGGDLSMSPLIKGLVPDTLSLSKSFSSFGNVSLQVPSSHRDTDVVLLSGRHSDSDGNGALKRSKIYASEITARMRAAATMLSQLDAEGSRRPKAETERIKNSIILDMQRLEEERLNEPSIYPVSVDISCAEDLRFGKETQKAERKGDRDDPSAATFQEDWYAKKERIRKSSPYGHYPNWDLVSVIVKTGADLRQETFACQLIYAFQRVWLECKEKVWVRRMKILVTGDNSGLIETITNAISVHSIKKNLTKQLREAELAQGKIAGKNVVTLKDYFIKQFGDPNSSRYRQAQTNFLQSLVAYSIISYLLQLKDRHNGNVLIDSEGHIIHIDFGFLLTNTPGNVGFESAPFKLTADYLEILDDRFDEYRSLMKAAFKSVRKNADQIILLVEVMQNNSTMPCFRAGENTSAQLLQRFQLQLGDKECDDFVDLLIQKANCSVWTRLYDLFQNITNGIY
chain 2: MSTDDSPYKQAFSLFDRHGTGRIPKTSIGDLLRACGQNPTLAEITEIESTLPAEVDMEQFLQVLNRPNGFDMPGDPEEFVKGFQVFDKDATGMIGVGELRYVLTSLGEKLSNEEMDELLKGVPVKDGMVNYHDFVQMILAN

Variants of: B1
Assay: sandwich ELISA
Conditions: with purified Cdc4 protein [S. pombe]; about 7 µg lysate protein; cells grown in the absence of thiamine; Cdc4-coated wells; parent: 0.02; read off a plot

Row | Variant | response
1 | chain 1 D709A | 0.083 Absorbance

Same assay, conditions: with purified Cdc4 protein [S. pombe]; about 14 µg lysate protein; cells grown in the absence of thiamine; Cdc4-coated wells; parent: 0.03; read off a plot

Row | Variant | response
2 | chain 1 D709A | 0.13 Absorbance

Same assay, conditions: with purified Cdc4 protein [S. pombe]; about 28 µg lysate protein; cells grown in the absence of thiamine; Cdc4-coated wells; parent: 0.073; read off a plot

Row | Variant | response
3 | chain 1 D709A | 0.21 Absorbance

Same assay, conditions: with purified Cdc4 protein [S. pombe]; about 56 µg lysate protein (highest point of 2-fold serial dilution); cells grown in the absence of thiamine; Cdc4-coated wells; parent: 0.27; read off a plot

Row | Variant | response
4 | chain 1 D709A | 0.57 Absorbance

— paper PMC2704394 (2009)
